Test results published in US7041463B2, “Orthologues of human receptors and methods of use” (Pharmacopeia Drug Discovery, Inc., priority 2000, dated 2006).

Key:
tree shrew B1 receptor = assay: [3H]-des-Arg10-kallidin binding, 293E membranes, tree shrew B1; design: species or system tree shrew (Tupaia minor); details: read-out: average dissociation constant (KD)
Description: (§1) Membrane preparations for use in accordance with the methods of the present invention were generated as follows. 293E cells expressing B1 receptors were harvested and pelleted. Cells were washed once with PBS and once with a membrane buffer (for example, 10 mM HEPES pH 7.5, 1 μM phosphoramidon, 3 μM amastatin, 1 μM captopril, 2 μM dithiothreitol (DTT)). Cells were resuspended in membrane buffer and Dounce homogenized on ice 35 times. The membranes were collected by centrifugation at 15,000×g for 30 min. at 4° C. and resuspended in membrane buffer containing 0.2% bovine serum albumin (BSA) at a final concentration of approximately 5×10^7 cell equivalents per ml. Aliquots were flash frozen and stored at −80° C. Frozen aliquots were subsequently thawed, diluted, and sonicated on ice using a Branson Sonifier® 250 (4×5 sec, 40% output).
(§2) Prior to use in a binding assay, a membrane preparation is “calibrated” as described below to determine the amount of membrane preparation to be used. […]
(§3) The method of the present invention employs a binding assay such as the one described below. […] 50 μl of scintillation fluid was added to each well and plates were counted in a Wallac Microbeta® TriLux for 10 min. per well.

[1] = molecular target: B1 receptors (species homologues); assay: [3H]-des-Arg10-kallidin binding across all cloned B1 orthologues; details: 0.6 nM or 1.5 nM (rat) [3H]-dAKd
Description: as §1, §2, §3

CXCR2 receptor = assay: CXCR2 radioligand binding, 293E membranes, monkey/primate receptors; details: recombinant CXCR2 from six primate species
Description: Membrane preparations for use in accordance with the methods of the present invention were generated as follows. 293E cell monolayers expressing CXCR2 receptors were washed twice with PBS and 5 ml of ice cold homogenizing buffer (for example, 10 mM HEPES pH 8.0, 10 mM EDTA). Cells were resuspended in membrane buffer and Dounce homogenized on ice 35 times. The membranes were collected by centrifugation at 15,000×g for 30 min. at 4° C. and resuspended in membrane storage buffer (10 mM Tris-HCl pH8.0, 1.2 mM MgSO4, 0.1 mM EDTA, 25 mM NaCl, 1 unit/ml bacitracin) at a final concentration of approximately 5×10^7 cell equivalents per ml. Aliquots were flash frozen and stored at −80° C. Frozen aliquots were subsequently thawed, diluted, and sonicated on ice using a Branson Sonifier® 250 (4×5 sec, 40% output).
Prior to use in a binding assay, a membrane preparation is “calibrated” as described below to determine the amount of membrane preparation to be used. A frozen sample of a membrane preparation is thawed and the preparation diluted in assay buffer to obtain several different concentrations of membranes, for example, 1:5, 1:10, 1:20, 1:40 and so on. The diluted membrane preparation is sonicated in a bath style sonicator for 5 minutes at room temperature. Each dilution is plated in a 96-well plate, for example, with quintuplicate samples for binding of ligand and wells to evaluate non-specific binding in triplicate. The dilutions that yield approximately 200 cpm total counts are chosen for subsequent assays.
For determining binding affinity for the orthologous CXCR2 receptors, described herein, the method of the present invention employs a binding assay such as the one described below. A suitable binding assay buffer for receptor binding consists of 10 mM Tris pH 8.0, 0.1 mM EDTA, 1.2 mM MgSO4, 25 mM NaCl and 0.03% CHAPS (Sigma, St. Louis, Mo.). […] 50 μl of scintillation fluid was added to each well and plates were counted in a Wallac Microbeta® TriLux for 1 min. per well.

[2] = molecular target: human bradykinin B1 receptor (human) (UniProt P46663); assay: radioligand competition binding
[3] = molecular target: canine/human chimeric bradykinin B1 receptor (UniProt Q9BDQ5); assay: radioligand competition binding
[4] = molecular target: tree shrew bradykinin B1 receptor (UniProt Q8HZP1); assay: radioligand competition binding
Sequence of tree shrew bradykinin B1 receptor (Q8HZP1 whole entry): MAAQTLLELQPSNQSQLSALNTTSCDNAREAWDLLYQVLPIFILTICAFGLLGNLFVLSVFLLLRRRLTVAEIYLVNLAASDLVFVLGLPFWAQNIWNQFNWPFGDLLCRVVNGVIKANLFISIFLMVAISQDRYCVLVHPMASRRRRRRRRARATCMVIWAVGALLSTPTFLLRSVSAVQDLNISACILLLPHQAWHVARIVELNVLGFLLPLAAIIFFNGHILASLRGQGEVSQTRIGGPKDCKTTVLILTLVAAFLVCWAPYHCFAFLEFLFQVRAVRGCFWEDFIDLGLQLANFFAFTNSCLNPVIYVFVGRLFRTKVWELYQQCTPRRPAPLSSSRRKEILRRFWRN

[5] = molecular target: rhesus macaque bradykinin B1 receptor (UniProt Q8HZP2); assay: radioligand competition binding
[6] = molecular target: pig bradykinin B1 receptor (UniProt Q8HZN9); assay: radioligand competition binding
Sequence of pig bradykinin B1 receptor (Q8HZN9 whole entry): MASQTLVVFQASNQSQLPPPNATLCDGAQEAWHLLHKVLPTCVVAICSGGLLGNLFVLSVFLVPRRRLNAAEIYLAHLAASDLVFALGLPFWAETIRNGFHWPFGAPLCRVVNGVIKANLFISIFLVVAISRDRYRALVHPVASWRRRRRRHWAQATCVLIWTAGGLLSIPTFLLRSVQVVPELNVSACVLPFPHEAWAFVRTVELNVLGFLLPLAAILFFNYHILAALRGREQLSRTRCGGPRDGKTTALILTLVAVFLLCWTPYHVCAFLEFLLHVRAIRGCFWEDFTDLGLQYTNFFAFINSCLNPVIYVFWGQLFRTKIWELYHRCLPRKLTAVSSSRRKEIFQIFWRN

[7] = molecular target: rabbit bradykinin B1 receptor (rabbit) (UniProt P48748); assay: radioligand competition binding
Sequence of rabbit bradykinin B1 receptor (rabbit) (P48748 whole entry): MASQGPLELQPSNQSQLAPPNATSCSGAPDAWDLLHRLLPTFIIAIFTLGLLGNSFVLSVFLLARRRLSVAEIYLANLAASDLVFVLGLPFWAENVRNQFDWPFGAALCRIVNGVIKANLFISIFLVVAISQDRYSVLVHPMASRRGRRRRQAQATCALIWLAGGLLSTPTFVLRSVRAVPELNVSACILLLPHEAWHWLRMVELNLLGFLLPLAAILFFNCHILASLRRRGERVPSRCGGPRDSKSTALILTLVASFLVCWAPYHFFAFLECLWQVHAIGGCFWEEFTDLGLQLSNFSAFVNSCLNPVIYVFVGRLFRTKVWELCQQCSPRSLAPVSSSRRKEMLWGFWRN

dog B1 = molecular target: T1, dog B1 (Canis lupus familiaris, UniProt Q9BDQ5, D322E/F324Y/R319K); assay: [3H]-des-Arg10-kallidin binding, 293E membranes, dog B1 (canine/human chimera); details: 0.6 nM [3H]-dAKd
T1 construct: the chimeric canine/human receptor described above was used in the experiments described below; C-terminal cytoplasmic tail of human bradykinin B1 receptor (fusion partner of the chimera); expressed in transfected cells; host or cells: 293-EBNA (293E) cells, membranes
T1 sequence (Q9BDQ5 with tags, fused parts or gaps R319K/D322E/F324Y): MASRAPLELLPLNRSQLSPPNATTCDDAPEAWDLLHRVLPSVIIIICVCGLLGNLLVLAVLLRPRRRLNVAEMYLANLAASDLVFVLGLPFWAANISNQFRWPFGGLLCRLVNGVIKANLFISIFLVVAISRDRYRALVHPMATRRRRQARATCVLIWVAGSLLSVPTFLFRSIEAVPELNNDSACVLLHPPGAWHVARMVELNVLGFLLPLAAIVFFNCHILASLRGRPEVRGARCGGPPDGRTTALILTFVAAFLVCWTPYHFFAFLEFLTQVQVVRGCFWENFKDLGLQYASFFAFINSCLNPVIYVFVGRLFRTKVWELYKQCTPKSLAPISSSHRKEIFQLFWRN
Text: Additionally, a canine/human chimeric bradykinin B1 receptor comprising amino acids 1 to 320 of the canine sequence and amino acids 319–353 of human bradykinin B1 receptor was generated. Any number of chimeric molecules, for example, a chimera comprising amino acids 1–315 of the canine sequence and amino acids 314–353 of the human sequence can be used.
as §1, with “Frozen aliquots were subsequently thawed, diluted, and sonicated on ice using a Branson Sonifier® 250 (4×5 sec, 40% output).” left out
as §3

[8] = molecular target: human bradykinin B1 receptor (human) (UniProt P46663); assay: radioligand saturation binding; legend: [3H]-des-Arg10-kallidin
[9] = molecular target: canine/human chimeric bradykinin B1 receptor (UniProt Q9BDQ5); assay: as above
[10] = molecular target: tree shrew bradykinin B1 receptor (UniProt Q8HZP1); assay: as above
[11] = molecular target: rhesus macaque bradykinin B1 receptor (UniProt Q8HZP2); assay: as above
[12] = molecular target: pig bradykinin B1 receptor (UniProt Q8HZN9); assay: as above
[13] = molecular target: rabbit bradykinin B1 receptor (rabbit) (UniProt P48748); assay: as above

Sequence of [des-Arg^10] [Leu^9]kallidin (P01042 whole entry, looked up): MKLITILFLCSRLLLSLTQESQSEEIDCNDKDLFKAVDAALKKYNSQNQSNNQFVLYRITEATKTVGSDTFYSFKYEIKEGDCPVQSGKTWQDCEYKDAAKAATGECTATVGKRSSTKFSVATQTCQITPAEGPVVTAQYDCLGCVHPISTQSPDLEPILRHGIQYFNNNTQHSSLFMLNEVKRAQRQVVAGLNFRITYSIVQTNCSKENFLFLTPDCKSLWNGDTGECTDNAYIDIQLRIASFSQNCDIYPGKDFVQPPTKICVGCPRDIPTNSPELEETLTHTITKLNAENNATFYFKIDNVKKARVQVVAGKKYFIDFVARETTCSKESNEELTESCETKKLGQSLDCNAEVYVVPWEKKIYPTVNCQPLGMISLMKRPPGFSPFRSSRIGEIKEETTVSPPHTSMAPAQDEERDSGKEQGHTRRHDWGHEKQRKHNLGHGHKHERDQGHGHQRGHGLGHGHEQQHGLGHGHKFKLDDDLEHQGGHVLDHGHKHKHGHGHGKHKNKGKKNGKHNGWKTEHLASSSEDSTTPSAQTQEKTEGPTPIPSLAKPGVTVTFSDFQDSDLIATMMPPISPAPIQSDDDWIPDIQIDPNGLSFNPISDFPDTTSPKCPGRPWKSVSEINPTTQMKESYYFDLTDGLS
Sequence of des-Arg^10-kallidin (P01042 whole entry, looked up): as above

In the case of `N=C(N)NCCC[C@H](NC(=O)[C@@H](N)CCCCN)C(=O)N1CCC[C@H]1C(=O)N1CCC[C@H]1C(=O)NCC(=O)N[C@@H](Cc1ccccc1)C(=O)N[C@@H](CO)C(=O)N1CCC[C@H]1C(=O)N[C@@H](Cc1ccccc1)C(=O)O` [dAKd, des-Arg^10-Kallidin], the Kd (tree shrew B1 receptor) is reported as 4.2 nM, the “affinity (K1) at all B1 species homologues, in words” value [1] is reported as “approximately equipotent” and the “affinity (K1) at all B1 species homologues, in words” value ([1]; listed as dAKD) is reported as “strong affinity”.

For “ENA-78: ligand bound by the encoded CXCR2 receptors”, the “binding to the encoded receptors, in words” value (“binding” below) (CXCR2 receptor) was “capable of binding”.

“Gro-alpha: ligand bound by the encoded CXCR2 receptors” was tested, and the “binding” value (CXCR2 receptor) was “capable of binding”.

“[des-Arg^10] [Leu^9]kallidin (from UniProt P01042 380-388)” showed a Ki [2] of 4.6 nM, a Ki [3] of 120 nM and a Ki [4] of 22 nM. For the same molecule, the Ki [5] was 9.5 nM, the Ki [6] was 9.5 nM and the Ki [7] was 9.3 nM.

With [des-Arg^10] [Leu^9]kallidin [dALKd] the “affinity (K1) at dog B1, in words” value (dog B1) was “more than an order of magnitude weaker”.

Work on “des-Arg^10-kallidin (from UniProt P01042 380-388)” yielded a Ki [2] of 1.5 nM, a Ki [3] of 4.2 nM and a Ki [4] of 6.1 nM. For the same molecule, the Ki [5] was 3.3 nM, the Ki [6] was 2.3 nM and the Ki [7] was 3.4 nM. For the same molecule, the Kd [8] was 0.6 ?, the Kd [9] was 3.3 ? and the Kd [10] was 4.2 ?. The Kd [11] was 2.8 ?, the Kd [12] was 1.9 ? and the Kd [13] was 1.3 ?.

In the case of interleukin 8: native ligand of CXCR2, the “binding” value (CXCR2 receptor) is reported as “capable of binding”.
